Measurements taken from publication PMC10499838 (Nature Communications, 2023).

Target: RVFV Gn, WT sequence, transiently expressed in Expi293F cells (Rift Valley fever virus, GenBank …)
Assay: flow cytometry on cells
Conditions: one partner purified

B1: RVFV-268 IgG1 (antibody, V domains shown)
VH: QVHLVESGGGVVQPGKSLRLSCAASGFIFNHFGIHWVRQSPGKGLEWVAVIWYDGSKKYFADSVKGRFSISRDNSQNTVYLQMNSLRTEDTAVYYCARERWSGHSYLDYWGHGALVTVSS
VL: SNVLTQPPSVSVAPGQTARISCGGNNLESKYVHWYQQKPGQAPVLVVYEDSGRPSGIPERFSGSNSGGTATLTISRVEAGDEADYYCQEWDTSSDYPVFGGGTKVTVL
notes: copies: 2 + 2
binding result: binds
